B1: CrkL-SH3N-SH3C (domain or fragment, human, UniProt P46109 125-303, looked up)
chain: LEYVRTLYDFPGNDAEDLPFKKGEILVIIEKPEEQWWSARNKDGRVGMIPVPYVEKLVRSSPHGKHGNRNSNSYGIPEPAHAYAQPQTTTPLPAVSGSPGAAITPLPSTQNGPVFAKAIQKRVPCAYDKTALALEVGDIVKVTRMNINGQWEGEVNGRKGLFPFTHVKIFDPQNPDENE
notes: human CrkL, SH3N-SH3C, residues 125-303, in pETEV15b; source: E. coli BL21 (DE3), purified (IMAC, TEV digestion, SEC); not shown: His, N-terminal, cleaved
B2: CrkL-SH3N-SH3C (residues 125-303) (domain or fragment, human, UniProt P46109 125-303, looked up)
chain: B1 chain
B3: CrkL-SH2-SH3N (domain or fragment, human, UniProt P46109 1-182, looked up)
chain: MSSARFDSSDRSAWYMGPVSRQEAQTRLQGQRHGMFLVRDSSTCPGDYVLSVSENSRVSHYIINSLPNRRFKIGDQEFDHLPALLEFYKIHYLDTTTLIEPAPRYPSPPMGSVSAPNLPTAEDNLEYVRTLYDFPGNDAEDLPFKKGEILVIIEKPEEQWWSARNKDGRVGMIPVPYVEKLV
notes: human CrkL, SH2-SH3N, residues 1-182, in pETEV15b; also called CrkL-SH2N-SH3N; source: E. coli BL21 (DE3), purified (IMAC, TEV digestion, SEC); not shown: His, N-terminal, cleaved
B4: CrkL-SH2-SH3N (residues 1-182) (domain or fragment, human, UniProt P46109 1-182, looked up)
chain: B3 chain
B5: CrkII (full-length) (natural protein, human, UniProt P46108-1 1-304, looked up)
chain: MAGNFDSEERSSWYWGRLSRQEAVALLQGQRHGVFLVRDSSTSPGDYVLSVSENSRVSHYIINSSGPRPPVPPSPAQPPPGVSPSRLRIGDQEFDSLPALLEFYKIHYLDTTTLIEPVSRSRQGSGVILRQEEAEYVRALFDFNGNDEEDLPFKKGDILRIRDKPEEQWWNAEDSEGKRGMIPVPYVEKYRPASASVSALIGGNQEGSHPQPLGGPEPGPYAQPSVNTPLPNLQNGPIYARVIQKRVPNAYDKTALALEVGELVKVTKINVSGQWEGECNGKRGHFPFTHVRLLDQQNPDEDFS
notes: human CrkII, residues 1-304, in pETEV15b; source: E. coli BL21 (DE3), purified (IMAC, TEV digestion, SEC); not shown: His, N-terminal, cleaved
B6: CrkII (human) (natural protein, UniProt P46108-1 1-304, looked up)
chain: B5 chain

Assays:
[1] = biological target: T1, C3G (full-length, residues 4-1077) (human, UniProt Q13905-1 4-1077); assay: ITC; C3G or pC3G in the cell titrated with the Crk protein, 25 °C, 300 mM NaCl, pH 7.5; global fit of three titrations with SEDPHAT, three symmetric binding sites, microscopic kd; conditions: both partners purified
T1 construct: also called C3G WT; RapGEF1; source: E. coli BL21 (DE3), purified (IMAC, TEV digestion, reversed IMAC, SEC); not shown: His, N-terminal, cleaved; Halo, N-terminal, cleaved
T1 sequence (looked up): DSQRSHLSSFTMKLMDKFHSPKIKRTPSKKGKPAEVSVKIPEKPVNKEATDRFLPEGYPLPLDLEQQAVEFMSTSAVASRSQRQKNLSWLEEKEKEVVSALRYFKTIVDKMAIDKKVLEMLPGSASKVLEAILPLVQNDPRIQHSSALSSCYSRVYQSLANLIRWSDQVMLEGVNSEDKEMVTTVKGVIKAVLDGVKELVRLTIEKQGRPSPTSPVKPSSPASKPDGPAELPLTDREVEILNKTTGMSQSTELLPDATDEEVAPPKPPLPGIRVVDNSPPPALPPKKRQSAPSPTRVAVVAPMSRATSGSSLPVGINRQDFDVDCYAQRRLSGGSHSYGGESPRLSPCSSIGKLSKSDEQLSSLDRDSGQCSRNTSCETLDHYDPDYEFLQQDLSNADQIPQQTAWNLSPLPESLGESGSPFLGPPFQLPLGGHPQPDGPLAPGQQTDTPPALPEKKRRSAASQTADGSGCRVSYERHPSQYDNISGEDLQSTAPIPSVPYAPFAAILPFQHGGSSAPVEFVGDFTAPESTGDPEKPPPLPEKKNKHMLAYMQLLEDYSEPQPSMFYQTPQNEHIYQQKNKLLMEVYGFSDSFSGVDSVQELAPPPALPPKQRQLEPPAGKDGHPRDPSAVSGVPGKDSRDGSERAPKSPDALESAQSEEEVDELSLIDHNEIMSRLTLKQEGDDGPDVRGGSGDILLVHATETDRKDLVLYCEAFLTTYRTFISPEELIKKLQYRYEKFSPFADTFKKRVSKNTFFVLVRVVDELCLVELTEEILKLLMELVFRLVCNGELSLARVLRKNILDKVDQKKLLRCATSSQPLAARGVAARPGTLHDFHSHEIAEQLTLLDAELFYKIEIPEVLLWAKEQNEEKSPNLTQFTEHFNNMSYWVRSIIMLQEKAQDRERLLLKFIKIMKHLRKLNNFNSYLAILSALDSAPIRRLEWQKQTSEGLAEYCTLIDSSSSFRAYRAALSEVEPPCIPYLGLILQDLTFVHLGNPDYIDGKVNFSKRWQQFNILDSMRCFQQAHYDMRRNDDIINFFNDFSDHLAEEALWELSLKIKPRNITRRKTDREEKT

[2] = biological target: T2, C3G full-length wild type (human, isoform a, residues 4-1077) (human, UniProt Q13905-1 4-1077); assay: cell-based or functional assay
T2 sequence (looked up): T1 sequence (looked up)

[3] = biological target: T3, Src-phosphorylated C3G (pC3G), wild type (human, UniProt Q13905-1 4-1077, phosphotyrosines (phosphorylated in vitro by Src; sites not stated)); assay: cell-based or functional assay
T3 sequence (looked up): T1 sequence (looked up)

Row | Binder | Kd [1] [µM] | AC50 of the dose-response activation of the GEF activity of C3G (1 µM) on Rap1b:mant-dGDP [2] [µM] | kmax of the dose-response activation of the GEF activity of C3G (1 µM) on Rap1b:mant-dGDP [2] [M⁻¹ s⁻¹] | AC50 of the dose-response activation of the GEF activity of pC3G (0.2 µM) on Rap1b:mant-dGDP [3] [µM] | kmax of the dose-response activation of the GEF activity of pC3G (0.2 µM) on Rap1b:mant-dGDP [3] [s^-1 µM^-1]
1 | B1 | 1.1 | – | – | – | –
2 | B2 | – | 19.8 | 12900 | 4.5 | 0.0134
3 | B3 | 2.2 | – | – | – | –
4 | B4 | – | 15.8 | 8400 | 4.9 | 0.0377
5 | B5 | 2.7 | – | – | – | –
6 | B6 | – | 65.7 | 7200 | 2.6 | 0.0223

From PMC9896810, “Crk proteins activate the Rap1 guanine nucleotide exchange factor C3G by segregated adaptor-dependent and -independent mechanisms” (Cell Communication and Signaling : CCS, 2023)
